Measurements: PMC11585080 (ACS nano, 2019)

Tests used:
Assay type in all cases: physicochemical
[1] = Analytical ultracentrifugation
[2] = ThT fluorescence assay of Aβ1–40 aggregation
[3] = Phase diagram of Aβ1–40 aggregation in water/alcohol mixtures
[4] = representatively selected peak, 2% HFIP, 25 °C
[5] = 6% HFIP, with sonication, 37 °C
[6] = without TFE, with sonication, 10 μM Aβ1–40, 10 mM sodium phosphate buffer pH 7.5, 100 mM NaCl, 5 μM ThT, 37 °C, three independent measurements

Substance: Aβ1–40 oligomers: Aβ1–40 dissolved in 100% HFIP, diluted 10-fold with water; ThT-negative β-structured spherical oligomers
- molecular weight of small oligomers ([1]; calculated from s-value ~5.2 S): ~ 70 kDa
- molecular weight of large oligomers ([1]; calculated from s-value ~24.7 S): ~ 740 kDa
- number of Aβ1–40 peptides forming small oligomers ([1]; from molecular weight ~70 kDa): ~ 17
- number of Aβ1–40 peptides forming large oligomers ([1]; from molecular weight ~740 kDa): ~ 170
- sedimentation coefficient (s-value), large oligomers [1, 4]: ~ 24.7 S
- sedimentation coefficient (s-value), small oligomers [1, 4]: ~ 5.2 S
- time of saturation of ThT fluorescence increase ([2]; oligomers + 10 mM sodium phosphate buffer pH 7.5, 100 mM NaCl, quiescent, 37 °C): ~ 35 h
- increase in ThT intensity ([2]; oligomers + NaCl alone (50–2000 mM), no pH shift, continuous shaking): no increase
- change in ThT fluorescence intensity of oligomer solution ([2]; oligomers without buffer (pH ~4), ~2 days without agitation, 37 °C): no changes

Substance: amyloid-β (1–40) [Aβ1–40]
- solubility state at high alcohol concentrations ([3]; >40% TFE and >30% HFIP, regardless of extensive sonication): remained soluble
- amyloid-forming region ([3]; water/TFE mixtures, with sonication, 100 mM NaCl, pH 7.5): 0–25 % TFE
- lag time before sigmoidal increase in ThT fluorescence ([2]; 2% HFIP, quiescent, 10 μM, pH 7.5, 100 mM NaCl, 37 °C): ~ 6 h
- conversion rate constant (protofibrils to amyloid fibrils) [2, 5]: 2.21 ± 0.85 h⁻¹
- time at which the ThT reaction was completed [2, 5]: ~ 2 h
- change in intensity of ThT fluorescence ([2]; 6% HFIP, without sonication, after ~35 h, 37 °C): did not change
- ThT fluorescence during incubation ([2]; 50% HFIP, without sonication, test tubes, pH 7.5, 100 mM NaCl, 37 °C): maintained a very low intensity
- effect of sonication on ThT fluorescence ([2]; greater than 40% TFE, with sonication, 10 μM, pH 7.5, 100 mM NaCl, 37 °C): did not affect the ThT fluorescence
- change in ThT-based kinetics and CD spectra ([2]; more than 25% TFE, quiescent, 10 μM, pH 7.5, 100 mM NaCl, 37 °C): no change
- change in ThT fluorescence intensity after incubation ([2]; without TFE, quiescent, incubation ~2 days, 10 μM, pH 7.5, 100 mM NaCl, 37 °C): no change
- elongation rate constant of amyloid fibrillation (ThT) [2, 6]: ~ 10 h^−1
- lag time of amyloid fibrillation (ThT) [2, 6]: ~ 1 h
